Experimental data from the nanobody polyreactivity screen of Harvey et al. (2022).

Assay: yeast display, Sf9 membrane polyspecificity reagent, FACS + sequencing; frameworks hold sequencing errors
Summary of the method: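 In a synthetic yeast display library (Saccharomyces cerevisiae BJ5465), nanobody expression was induced with galactose for 36–48 hours. FACS gates were set low and high (top ~1%) using anti-HA fluorescence for expression and streptavidin fluorescence for binding of the Sf9 membrane reagent. Each polyreactivity label is drawn from the gate of origin.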

Row | Sequence | polyreactivity (PSR sort gate)
1 | QVQLVESGGGLVQAGGSLRLSCAASGINNSVNDMGLYRQAPGKERELVAAISSGDSTNYADSVKGRFTISRDNAKNTVYLQMNSLKPEDTAGYYCAALEGCLTGWQTYDYWGQGTQVTVSS | low polyreactivity
2 | QVQLVESGGGLVQAGGSLRLSCAASGINYVRYAMGWYRQAPGKEREFVAAITRNGGRTYYADSVKGRFTISRDNAKNTVYLQMNSLKPEDTAVYYCAAYPAYPGTLEMDYWGQGTQVTVSS | high polyreactivity
3 | QVQLVESGGGLVQAGGSLRLSCAASGISFEYYAMGWYRQAPGKERELVAAITRGGSTYYADSVKGRFTISRDNAKNTVYLQMNSLKPEDTAVYYCAADRYYYEYDYWGQGTQVTVSS | low polyreactivity
4 | QVQLVESGGGLVQAGGSLRLSCAASGITCSYYTIGWYRQATGKEWELVATISQSSGSTYYADSVKGRFTISRDNAKNTVYLQINTLKPEDTAVYYCKARRDYEWVSWNVVDDYWGQGTQVTVSS | high polyreactivity
5 | QVQLVESGGGLVQAGGSLRLSCAASGITFAEYAMGWYRPAPGKERELVAAINGGGGSTYYADSVKGRFTISRDYAKNTVYFQMNSLKPEDTAVYYCAADGYPGDYDYWGQGTQVTVSS | high polyreactivity
6 | QVQLVESGGGLVQAGGSLRLSCAASGITFAFYDMGWYRQAPGKERELVAAISYSGGGTYYADSVKGRFTISRDNAKNTVYLQMNSLKPEDTAVYYCAADPKTHALFGEDYWGQGTQVTVSS | low polyreactivity
7 | QVQLVESGGGLVQAGGSLRLSCAASGITFAGYAMGSDREAPGTERELVAAITRRGGITYYADSVKGRFTISRDNAKNTVYLQMNSLKPEDTAVYYCNAGRRVSTYGYWGQGTQVTVSS | high polyreactivity
8 | QVQLVESGGGLVQAGGSLRLSCAASGITFALNAMGWYRQAPGKERELVAAIRWGGDSTYYADSVKGRFTISRDNAKNTVYLQMNSLKPEDTAVYYCAAYGPRTLDYWGQGTQVTVSS | high polyreactivity
9 | QVQLVESGGGLVQAGGSLRLSCAASGITFALYAMGWYRKAPGKERELVAAISYSGGRTYYADSVKGRFTISRDTAKNTVYLQMNSLKPEDTAVYYCAAGGSGSGPYGYGYWGQGTQVTVSS | high polyreactivity
10 | QVQLVESGGGLVQAGGSLRLSCAASGITFASNPMGWYRQAPGKERELVAAITRGDNTYYADSVKGRFTISRDNAKNTVYLQMNSLKPEDTAVYYCATEGYQIQYEHDYWGQGTQVTVSS | low polyreactivity
11 | QVQLVESGGGLVQAGGSLRLSCAASGITFASYAMGWYRQAPGKERELVAVITRSTGRTYYADSVKGRFTISRDNAKNTVYLQMNSLKPEDTAVYYCAAGYITWYDYWGQGTQVTVSS | high polyreactivity
12 | QVQLVESGGGLVQAGGSLRLSCAASGITFASYVMGWYRQAPGKERELVAAISSSGGSTYYADSVKGRFTISRDNAKNTVYLQMNSLKPEDTAVYYCKARLYYSWRSTYDYWGQGTQVTVSS | high polyreactivity
13 | QVQLVESGGGLVQAGGSLRLSCAASGITFATNAMGWYRQAPGKERELVAGITSGGSTYYADSVKGRFTISRDNAKNTVYLQMNSLKPEDTAVYYCAKRYHYWYGTGYDYWGQGTQVTVSS | low polyreactivity
14 | QVQLVESGGGLVQAGGSLRLSCAASGITFATYAMGWYRQAPGKERELVAAISGGGGRTYYADSLKGRFTISRDNAKNTVYLQMNSLKPEDTAVYYCATAQRSSQFYHWGQGTQVTVSS | high polyreactivity
15 | QVQLVESGGGLVQAGGSLRLSCAASGITFAVKAMGWSRQAPGKERELVAAISRSAGSTYYADSVKGRFTISRDNAKNTVYLQMNSLKPEDTAVYYCATALRYARSRNRFYYWGQGTQVTVST | high polyreactivity
16 | QVQLVESGGGLVQAGGSLRLSCAASGITFAVYAMGWYRQAPGKERELVAAITRGGGSTYYADSVKGRFSISRDNAKNTVYLQMNSLKPEHTAVYYCNADSIPEGNSRYSHFDYWGQGTQVTVSS | low polyreactivity
17 | QVQLVESGGGLVQAGGSLRLSCAASGITFAYKAMGWYRQAPGTERELVARITSGGRTYYSDSVKARFTISRDNAMNTVYLQMNSLKPEDTAVYYCNAKEGSRYRKYDYWGQGTQVTVSS | low polyreactivity
